The text below walks through data of patent US20240011000.

Data set [1] deals with Br512 (villin headpiece HP47-Bst-LF fusion DNA polymerase) (Geobacillus stearothermophilus / Gallus gallus fusion).
The target in another data set is Bst 2.0 DNA polymerase (UniProt P52026). The conditions noted are these: RT-LAMP-OSD, 300 genomes, isothermal buffer, 65 C.
Data set [2] deals with Bst-LF (DNA polymerase I large fragment) (Geobacillus stearothermophilus). The conditions noted are these: RT-LAMP-OSD, G6D buffer, 65 C.

Sequence of UniProt P52026 (P52026 297-876): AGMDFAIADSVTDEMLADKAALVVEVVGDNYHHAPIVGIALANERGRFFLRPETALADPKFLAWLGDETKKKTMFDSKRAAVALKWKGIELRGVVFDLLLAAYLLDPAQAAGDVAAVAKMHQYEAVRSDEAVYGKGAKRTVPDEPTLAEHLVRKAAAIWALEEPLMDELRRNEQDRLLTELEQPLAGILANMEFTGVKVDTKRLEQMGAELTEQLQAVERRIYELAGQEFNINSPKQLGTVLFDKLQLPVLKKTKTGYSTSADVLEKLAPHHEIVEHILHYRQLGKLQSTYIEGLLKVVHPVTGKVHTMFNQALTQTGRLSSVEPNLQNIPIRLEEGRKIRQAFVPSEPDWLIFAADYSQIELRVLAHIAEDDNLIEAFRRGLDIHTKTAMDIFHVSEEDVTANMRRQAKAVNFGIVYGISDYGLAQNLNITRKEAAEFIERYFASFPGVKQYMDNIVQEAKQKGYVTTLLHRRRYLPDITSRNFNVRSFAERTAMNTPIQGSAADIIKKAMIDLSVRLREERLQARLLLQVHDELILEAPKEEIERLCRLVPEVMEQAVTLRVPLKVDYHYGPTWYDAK

Consider SARS-CoV-2 RNA, 6-Lamb target, for which the activity (% assays positive) in data set [1] was 100; in the data set with Bst 2.0 DNA polymerase, 75; in data set [2], 33.
Turning to SARS-CoV-2 RNA, NB (N gene) target, the results for the activity (% assays positive) (in data set [1]; with Bst 2.0 DNA polymerase; in data set [2]) were 80, 25 and 16, respectively.
